Square brackets hold non-standard residues; d marks the D form. Primed or numbered codes have the meaning given here. Ends that are not written are not given here. PEG3′ = three-unit polyethylene glycol linker
Tests used:
[1] = biological target: His-SUMO-XB-GGS-SBP (E. coli); assay: BLI; His-SUMO-tagged peptide loaded on Octet NTA biosensors (200 nM Linker-Bait or 400 nM GroTAC1), blocked with His-SUMO; GroEL 2.5 uM to 78.1 nM in solution; 30 °C; 25 mM HEPES pH 8.0, 300 mM KCl, 10 mM MgCl2, 0.05% Tween-20, 12.5 mM ATP; 1:1 model
[2] = biological target: His-SUMO-GGS-SBP; assay: as above
[3] = biological target: His-SUMO-XB-GGS-SBP (E. coli); assay: BLI; His-SUMO-tagged peptide loaded on Octet NTA biosensors (200 nM Linker-Bait or 400 nM GroTAC1), blocked with 257 nM His-SUMO; GroEL as analyte, 2.5 uM to 78.1 nM; 30 C; 25 mM HEPES pH 8.0, 300 mM KCl, 10 mM MgCl2, 0.05% Tween-20, 12.5 mM ATP; 1:1 fit
[4] = biological target: His-SUMO-GGS-SBP; assay: as above
[5] = biological target: His-SUMO-XB-GGS (E. coli); assay: BLI; His-SUMO-tagged peptide loaded on Octet NTA biosensors (150 nM Anchor-Linker or 100 nM GroTAC1), blocked with His-SUMO; ClpX 1 uM to 31.25 nM in solution; 30 °C; 25 mM HEPES pH 8.0, 200 mM KCl, 10 mM MgCl2, 0.05% Tween-20, 2.5 mM ATP; 1:1 model
[6] = biological target: His-SUMO-XB-GGS-SBP (E. coli); assay: as above
[7] = biological target: His-SUMO-XB-GGS (E. coli); assay: BLI; His-SUMO-tagged peptide loaded on Octet NTA biosensors (150 nM Anchor-Linker or 100 nM GroTAC1), blocked with 86 nM His-SUMO; ClpX as analyte, 1 uM to 31.25 nM; 30 C; 25 mM HEPES pH 8.0, 200 mM KCl, 10 mM MgCl2, 0.05% Tween-20, 2.5 mM ATP; 1:1 fit
[8] = biological target: His-SUMO-XB-GGS-SBP (E. coli); assay: as above
[9] = biological target: T1, His-ZBD (E. coli, UniProt P0A6H1 1-52); assay: BLI; 1.37 uM His-ZBD loaded on Octet NTA biosensors, blocked with 600 nM cAbGFP; untagged synthetic peptide as analyte, 1 uM to 31.25 nM; 30 C; 25 mM HEPES pH 8.0, 200 mM KCl, 10 mM MgCl2, 2.5 mM ATP, 0.05% Tween 20; 1:1 fit; conditions: both partners purified
T1 construct: also called 6xHis-ZBD; source: E. coli BL21 DE3, purified (HisTrap, Superdex200); not shown: His6, N-terminal, kept
T1 sequence (looked up): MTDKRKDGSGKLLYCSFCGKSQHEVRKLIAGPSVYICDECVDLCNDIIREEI

Molecule: GroEL (from UniProt P0A6F5 1-548) (natural protein)
- Kd [1]: 154 nM
- Kd [2]: 94 nM
- koff [3]: 0.00409 s⁻¹
- kon [3]: 26600 M⁻¹ s⁻¹
- Kd [4]: 93.6 nM
- koff [4]: 0.00919 s⁻¹
- kon [4]: 98200 M⁻¹ s⁻¹

Molecule: ClpX (from UniProt P0A6H1 1-424) (enzyme)
- Kd [5]: 65 nM
- Kd [6]: 70 nM
- Kd [7]: 64.8 nM
- koff [7]: 0.00495 s⁻¹
- kon [7]: 76500 M⁻¹ s⁻¹
- Kd [8]: 70.4 nM
- koff [8]: 0.00769 s⁻¹
- kon [8]: 109000 M⁻¹ s⁻¹

B1: GroTAC2 (synthetic) (designed binder)
peptide: CYRGGRPALRVVKGGSGGSGGSWMTTPWGFHLP
notes: flexible linker; also called untagged, synthetic GroTAC2; source: synthetic peptide (GeneScript)
- Kd [9]: 52.6 nM
- koff [9]: 0.00165 s⁻¹
- kon [9]: 31400 M⁻¹ s⁻¹

B2: GroTAC3 (synthetic) (designed binder)
peptide: CYRGGRPALRVVK[PEG3′]SWMTTPWGFHLP
notes: residues 17-28 in the model PDB 8S32; the (PEG)3 linker is no amino acid stretch; also called XB-PEG3-SBP; source: synthetic peptide (KareBay Biochem)
- Kd [9]: 82.4 nM
- koff [9]: 0.000915 s⁻¹
- kon [9]: 11100 M⁻¹ s⁻¹

— publication PMC12373786, “Targeted protein degradation in Escherichia coli using CLIPPERs” (EMBO Reports, 2025)
